The data set deals with LexA (Escherichia coli). In words: EMSA. (In EMSA bound probe runs differently from free probe, usually more slowly.)

A value given as a limit tells only on which side of the number the result lay.

In general, Kd refers to a measure of binding affinity in units of concentration. Lower therefore signals tighter binding. The substance YNN1-LexO naked DNA returned a Kd below 5 nM.

For the origin of these results see PMC13440416.
